# Laboratory results from patent US20240392003A1 (NUMAB THERAPEUTICS, published 2024).
# Read-outs that look alike come from different tables or passages of the source.
# Columns and labels:
# [1] = target: T1, recombinant human ROR1 protein (Fc-Tag, Acro Biosystems RO1-H5250) (human, UniProt Q01973 30-406); experiment: SPR; hROR1-Fc immobilized
# T1 construct: Bought; also called hROR1; recombinant human ROR1 ECD; not shown: Fc tag
# [2] = target: T2, recombinant human CD3 epsilon extra-cellular domain protein (His-Tag, SinoBiological) (human, UniProt P07766 23-126); experiment: SPR; hCD3ε immobilized, two-state fit (kd1)
# T2 construct: extracellular domain; Bought; also called hCD3ε; human CD3ε; not shown: His tag
# [3] = target: T2, recombinant human CD3 epsilon …; experiment: SPR; hCD3ε immobilized, two-state fit (ka1)
# [4] = target: T3, human ROR1 expressed on cells (human, UniProt Q01973 30-937); experiment: flow cytometry, MDA-MB-231 cells, 1 mg/ml hSA
# T3 construct: whole, on cells; One molecule for cell-surface ROR1 on all cell lines; the cell line is named under assay; also called hROR1; plasma membrane human ROR1
# [5] = target: T2, recombinant human CD3 epsilon …; experiment: SPR; hCD3ε immobilized, two-state fit;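 as to ka2: biacore T200 measurement with target covalently coupled to a CM5 chip, antibody constructs injected as analyte over a concentration series, constants derived in Biacore Evaluation software 3.2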;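 as to kd2: biacore T200 measurement with target covalently coupled to a CM5 chip, antibody constructs injected as analyte over a concentration series, constants derived in Biacore Evaluation software 3.2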
# [6] = target: T3, human ROR1 expressed on cells; experiment: flow cytometry, gated on CLL patient tumor cells (ROR1 about 8k/cell), titration in the presence of human serum albumin, labelled framework-specific secondary reagent
# [7] = target: T1, recombinant human ROR1 protein (Fc-Tag, …); experiment: SPR; hROR1-Fc immobilized; remark: listed apart in the source
# [8] = target: T3, human ROR1 expressed on cells; experiment: flow cytometry, MDA-MB-231 cells; mean of three experiments
# [9] = target: T1, recombinant human ROR1 protein (Fc-Tag, …); experiment: SPR; hROR1-Fc immobilized; remark: listed apart in the source
# [10] = target: T3, human ROR1 expressed on cells; experiment: flow cytometry, MDA-MB-231 cells; mean of two experiments
# [11] = target: T3, human ROR1 expressed on cells; experiment: flow cytometry, MDA-MB-231 cells
# [12] = target: T3, human ROR1 expressed on cells; experiment: flow cytometry, MDA-MB-231 cells; remark: listed apart in the source
# [13] = target: T4, recombinant Cynomolgus monkey CD3ε (His-Tag; SinoBiological) (Cynomolgus monkey, UniProt Q95LI5 22-117); experiment: SPR; cCD3ε immobilized, two-state fit (Kd1)
# T4 construct: Bought; also called cCD3ε; not shown: His tag
# T4 sequence (looked up): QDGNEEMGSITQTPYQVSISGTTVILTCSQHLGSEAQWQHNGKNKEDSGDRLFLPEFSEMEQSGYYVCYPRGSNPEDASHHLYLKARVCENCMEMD
# [14] = target: T2, recombinant human CD3 epsilon …; experiment: SPR; hCD3ε immobilized, two-state fit (Ka1)
# [15] = target: T4, recombinant Cynomolgus monkey CD3ε …; experiment: SPR; cCD3ε immobilized, two-state fit
# [16] = target: T2, recombinant human CD3 epsilon …; experiment: SPR; hCD3ε immobilized, two-state fit (Kd1)
# [17] = target: T4, recombinant Cynomolgus monkey CD3ε …; experiment: SPR; cCD3ε immobilized, two-state fit (Ka1)
# [18] = target: T2, recombinant human CD3 epsilon …; experiment: SPR; hCD3ε immobilized, two-state fit; remark: listed apart in the source;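 as to ka2: biacore T200 measurement with target covalently coupled to a CM5 chip, antibody constructs injected as analyte over a concentration series, constants derived in Biacore Evaluation software 3.2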;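 as to kd2: biacore T200 measurement with target covalently coupled to a CM5 chip, antibody constructs injected as analyte over a concentration series, constants derived in Biacore Evaluation software 3.2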
# [19] = target: T5, mouse serum albumin (Sigma-Aldrich A3559) (mouse, UniProt P07724 25-608); experiment: SPR; mSA immobilized, pH 7.4; biphasic binding corrected with bulk correction in 1:1 fit
# T5 construct: also called mSA; MSA
# [20] = target: T6, human serum albumin (Sigma-Aldrich A3782) (human, UniProt P02768 25-609); experiment: SPR; hSA immobilized, pH 7.4
# T6 construct: also called hSA; HSA
# [21] = target: T7, cynomolgus monkey serum albumin (Molecular Innovations CYSA) (cynomolgus monkey); experiment: SPR; cSA immobilized, pH 7.4
# T7 construct: also called cSA; CSA
# [22] = target: T5, mouse serum albumin (Sigma-Aldrich …); experiment: SPR; mSA immobilized, pH 7.4
# [23] = target: T6, human serum albumin (Sigma-Aldrich …); experiment: SPR; hSA immobilized, pH 5.5
# [24] = target: T7, cynomolgus monkey serum albumin …; experiment: SPR; cSA immobilized, pH 5.5
# [25] = target: T5, mouse serum albumin (Sigma-Aldrich …); experiment: SPR; mSA immobilized, pH 5.5
# [26] = target: T5, mouse serum albumin (Sigma-Aldrich …); experiment: SPR; mSA immobilized, pH 5.5; biphasic binding corrected with bulk correction in 1:1 fit
binder,measurement,setting,value
"PRO2668 (bispecific antibody, trispecific anti-ROR1 x hSA x CD3 scMATCH3, single chain, optimized variant of PRO2510; also called 19-04-A10-sc06(RTQ) scDb-o/28-21-D09-sc04 (RTQ) scDb-i/55-39-G02-sc05(RTQ)-scFv; RPO2668) AFELTQSPSSLSASVGDRVTITCQASESINSRLAWYQQKPGQPPKLLIYDASDLTSGVPSRFSGSGSGTDFTLTISSLQPEDFATYYCQGYGGSSTTTFGCGTKLTVLGGGGGSEVQLVESGGGRVQPGGSLRLSCAASGFSLSSYDMSWVRQAPGKGLAWIGASYASGPTYYASWAKGRFTISRDNSKNTVYLQMNSLRAEDTATYFCARGGWTGTSHSNIWGQGTQVTVSSGGGGSGGGGSGGGGSGGGGSDIQMTQSPSSLSASVGDRVTITCQSSQSVFSNNYLAWFQQKPGQSPKRLIYSASTLASGVPSRFSGSGSGTDFTLTISSLQPEDFATYYCLGSYACSSADCYVFGTGTKVTVLGGGGGSEVQLVESGGGRVQPGGSLRLSCAASGFSLSSYAMNWVRQAPGKCLEWIGHINAGDIAYYATWAKGRFTISRDNSKNTVYLQMNSLRAEDTATYFCARGAGGFSTGPFKLWGQGTQVTVSSGGGGSGGGGSAQQLTQSPSSLSASVGDRVTITCQASQNVWNNNYLSWFQQKPGKPPKLLIVTASTLASGVSSRFSGSGSGTDFTLTISSLQPEDFATYYCAGGFSGEIRAFGCGTKVTVLGGGGGSGGGGSGGGGSGGGGSQSQLVESGGGRVQPGGSLRLSCAVSGLSLSRNAMSWVRQAPGKCLEWIGIILTSGSTYYASWAKGRFTISKDNSKNTVYLQMNSLRAEDTATYFCVRGIASSSLKSFWGQGTQVTVSS",Kd,[1],0.28 nM
same,koff,[1],0.00056 s⁻¹
same,kon,[1],2e+06 M⁻¹ s⁻¹
same,koff,[2],0.0047 s⁻¹
same,kon,[3],2.5e+06 M⁻¹ s⁻¹
same,EC50,[4],0.74 nM
same,Rel. maximum binding (MFIscMATCH3/MFIPRO2213),[4],2.89
same,Kd,[5],1.8 nM
same,ka2,[5],0.0049 s⁻¹
same,kd2,[5],0.0023 s⁻¹
same,EC50 (read off the curve),[6],~1 nM
"PRO2060 (scFv, V domains shown, scFv (Full graft); also called 55-38-D07-sc02) VH: QSQVVESGGGLVQPGGSLRLSCAVSGFDLSSYAVSWVRQAPGKGLEWIGIIYPRANTYYASWAKGRFTISKDNSKNTVYLQMNSLRAEDTAVYFCARDRYDSGAYLYTTYFNLWGQGTLVTVSS VL: DVQMTQSPSSLSASVGDRVTITCRASENIYSGLAWYQQKPGKPPKLLIYRASTLASGVSSRFSGSGSGTDFTLTISSLQPEDFATYYCQGGYYSSSSTYIAFGTGTKVTVLG",Kd,[7],0.285 nM
same,koff,[7],9.56e-05 s⁻¹
same,kon,[7],335000 M⁻¹ s⁻¹
same,EC50,[8],2.93 nM
same,Kd,[9],0.416 nM
same,koff,[9],9.79e-05 s⁻¹
same,kon,[9],250000 M⁻¹ s⁻¹
"PRO2062 (scFv, V domains shown, scFv (Full graft); also called 55-39-G02-sc02) VH: QSQLVESGGGLVQPGGSLRLSCAVSGLSLSRNAMSWVRQAPGKGLEWIGIILTSGSTYYASWAKGRFTISKDNSKNTVYLQMNSLRAEDTAVYFCVRGIASSSLKSFWGQGTLVTVSS VL: AQQLTQSPSSLSASVGDRVTITCQASQNVWNNNYLSWFQQKPGKPPKLLIVTASTLASGVSSRFSGSGSGTDFTLTISSLQPEDFATYYCAGGFSGEIRAFGTGTKVTVLG",Kd,[7],0.0926 nM
same,koff,[7],0.00049 s⁻¹
same,kon,[7],5.29e+06 M⁻¹ s⁻¹
same,EC50,[10],0.26 nM
same,Kd,[9],0.103 nM
same,koff,[9],0.000455 s⁻¹
same,kon,[9],4.45e+06 M⁻¹ s⁻¹
"PRO2271 (scFv, V domains shown, scFv, T cell score optimized variant of PRO2062; also called 55-39-G02-sc03) VH: QSQLVESGGGLVQPGGSLRLSCAVSGIDLSRNAMSWVRQAPGKGLEWIGIILTSGSTYYASWAKGRFTISKTSTTLDLQMNSLRAEDTAVYFCVRGIASSSLKSFWGQGTLVTVSS VL: AQQLTQSPSSLSASVGDRVTITCQASQNVWNNNYLSWFQQKPGKPPKLLIVTASTLASGVSSRFSGSGSGTDFTLTISSLQPEDFATYYCAGGFSGEIRAFGTGTKVTVLG",Kd,[7],0.364 nM
same,koff,[7],0.000578 s⁻¹
same,kon,[7],1.59e+06 M⁻¹ s⁻¹
same,fold lower apparent binding affinity than PRO2062,[11],~2 fold
same,EC50,[12],0.63 nM
same,Rel. maximum binding (MFIscFv/MFIPRO2213),[12],0.87
"PRO726 (scFv, V domains shown, scFv; also called 28-21-D09-sc04; anti-CD3 scFv) VH: EVQLVESGGGLVQPGGSLRLSCAASGFSLSSYDMSWVRQAPGKGLAWIGASYASGPTYYASWAKGRFTISRDNSKNTVYLQMNSLRAEDTATYFCARGGWTGTSHSNIWGQGTLVTVSS VL: DIQMTQSPSSLSASVGDRVTITCQSSQSVFSNNYLAWFQQKPGQSPKRLIYSASTLASGVPSRFSGSGSGTDFTLTISSLQPEDFATYYCLGSYACSSADCYVFGTGTKVTVLG",koff,[13],0.0062 s⁻¹
same,kon,[14],650000 M⁻¹ s⁻¹
same,Kd,[15],4.8 nM
same,koff,[16],0.0055 s⁻¹
same,kon,[17],820000 M⁻¹ s⁻¹
same,Kd,[18],5.3 nM
"PRO2155 (scFv, V domains shown, scFv; also called 19-04-A10-sc02; anti-hSA scFv) VH: EVQLVESGGGLVQPGGSLRLSCAASGFSLSSYAMNWVRQAPGKGLEWIGHINAGDIAYYATWAKGRFTISRDNSKNTVYLQMNSLRAEDTAVYFCARGAGGFSTGPFKLWGQGTLVTVSS VL: AFELTQSPSSLSASVGDRVTITCQASESINSRLAWYQQKPGQPPKLLIYDASDLTSGVPSRFSGSGSGTDFTLTISSLQPEDFATYYCQGYGGSSTTTFGGGTKLTVLG",Kd,[19],9 nM
same,Kd,[20],2.2 nM
same,koff,[20],0.0012 s⁻¹
same,kon,[20],550000 M⁻¹ s⁻¹
same,Kd,[21],1.6 nM
same,koff,[21],0.00091 s⁻¹
same,kon,[21],580000 M⁻¹ s⁻¹
same,koff,[22],0.00029 s⁻¹
same,kon,[22],32000 M⁻¹ s⁻¹
same,Kd,[23],3.3 nM
same,koff,[23],0.003 s⁻¹
same,kon,[23],900000 M⁻¹ s⁻¹
same,Kd,[24],2.3 nM
same,koff,[24],0.0021 s⁻¹
same,kon,[24],910000 M⁻¹ s⁻¹
same,koff,[25],0.0002 s⁻¹
same,kon,[25],78000 M⁻¹ s⁻¹
same,Kd,[26],2.5 nM
